Laboratory results from publication PMC5067487.

Legend:
Assay in all cases: ITC; peptide (100 uM stock in ddH2O) titrated into PadeB1 or variant (5-10 uM) in the sample cell; 50 mM Tris, 5 mM MgCl2, pH 8.0; 25 °C; One Set of Sites model; triplicate
[1] = target: PadeB1 (Paenibacillus dendritiformis C454)
[2] = target: PadeB1 I61A (Paenibacillus dendritiformis C454)
[3] = target: PadeB1 N40A (Paenibacillus dendritiformis C454)
[4] = target: PadeB1 Y38A (Paenibacillus dendritiformis C454)
[5] = target: PadeB1 D23A (Paenibacillus dendritiformis C454)
[6] = target: PadeB1 W49A (Paenibacillus dendritiformis C454)
[7] = target: PadeB1 D79A (Paenibacillus dendritiformis C454)
[8] = target: PadeB1 K28A (Paenibacillus dendritiformis C454)

Kd [1]	Kd [2]	Kd [3]	Kd [4]	Kd [5]	Kd [6]	Kd [7]	Kd [8]	Substance
4 nM	–	–	–	–	–	–	–	full-length precursor peptide GP-PadeA
5.3 nM	73 nM	16 nM	6.2 nM	2.4 nM	140 nM	150 nM	2.7 nM	leader peptide of PadeA
